B1: TPR t1 (parent)
chain: GACCAAUCUGCCCUCAGAGCUCGAGAACAUCUUCGGAUGCAGAGGAGGCAGGCUUCGGUGGCGCGAUAGCGCCAACGUCCUCAACCUCCAAUGCAUCCCACCACAUGAUGAUGCCUGAAGAGCCUUGGUUUUUUG

Variants of: B1
Experiment: polymerase ribozyme fitness, log enrichment relative to wild type (log ratio); higher = more active; in vitro selection for triplet polymerase activity
How it was run: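 After PCR construction and transcription, each subunit's mutant library from a heterodimeric triplet polymerase ribozyme was annealed with a biotinylated primer, the partner subunit and triplets. Incubation was frozen, at −7 °C, and extended constructs were gel-excised, bound to streptavidin beads and amplified by RT-PCR, in one selection round done in triplicate. Fitness is the logarithm of a genotype's enrichment divided by that of the wild type, from inverse-variance-weighted replicate averages of Illumina-sequenced inputs and outputs. The base of the logarithm is 2, and genotypes needed ≥10 input reads and ≥1 read per output.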

Variant	polymerase ribozyme fitness (log ratio)
C8A U21A A46U	-1.03
C8A C49U A74C U78C C85A A91U C94U	-3.74
C8A G52U C89U	-0.556
C8A G51U U59A A83U C85G U106A	-6.35
C8A U14C G39U C102G G117A	-6.22
C8A U55C C79G C94A	-3.64
C8A C64U C104A G120A	0.21
C8A G36U G42A	-3.09
C8A G52C U81A	-2.06
C8A G71U A84C A95G U109A U126A	-5.61
C8A G69U C99A G120A G122A	-1.73
C8A C53U C114A	0.0648
C8A C104A A105C C124G U126G	-3.52
C8A G58A G60A	-0.486
C8A G93C A100C C115U	-4.5
C8A C97A	-4.07
C8G A26U G52A G63C	-4.29
C8A U78C U106C C114U	-2.11
C8A G77U C82A	0.031
C8A U38A A46C C72U	-1.72
C8A G44U C123U	0.898

Variant	polymerase ribozyme fitness (log ratio)
C8A G36A C79U U96G C102U	-2.91
C8A G77U U106G C115G	-1.95
C8A C56U G69C U112A G120A	-7.42
C8A G44U	-0.208
C8A U33A G42U C73U U112A C123A	-5.52
C8A G120C	1.71
C8A C79U	0.419
C8A U96C C123A	1.93
C8A G52U A91U U112A A118C U131C	-1.36
C8A C86U G110A G120U	0.0948
C8A U32C C49A	0.0595
C8A C98U	-1.12
C8A G61A G63A	-6.8
C8A G93A A108G	-2.37
C8A G60A U78A U92C	-1.3
C8A U59A C82A U96A U112A	0.158
C8A G61C G122A	-0.605
C8G A16C G61C G71A G120C	-6.1
C8A G52A C72G	0.47
C8A C53A G69U A119G U131A U134G	1.54
C8A C53G C70U C97U U112A C124U	0.47

Variant	polymerase ribozyme fitness (log ratio)
C8A C49U A100U G120A	0.731
C8A C104U	0.701
C8A U9A A50U C80U A84C	-2.54
C8A U54A C62U G110U U125C	-1.99
C8A G69A	-1.52
C8A G17A C73A	-2.25
C8G A16U C94A	-0.757
C8G A26U U81A	-3.21
C8A G36A G60U C82A G117C U131A G135U	-5.4
C8G A18C C40U C72A C123G	0.381
C8A U55G C114A C115U	-2.83
C8A C123G	2.06
C8A G60U C104G C124U	-5.09
C8A C40U C62A A90C	-3.39
C8A U59G C72G U133G	-3.35
C8A G45U	-0.263
C8A G45A	0.134
C8A G110U	-0.434
C8A U109A	-4.14
C8A C104U G122A	0.724
C8A G19C C82A	-1.97

Variant	polymerase ribozyme fitness (log ratio)
C8A G39C C53G G61C	-0.548
C8A C56A	0.505
C8A G93A G117U G128U	-4.74
C8A G42A G60U A121C	-0.202
C8A G61U	-0.146
C8A G61C	-0.912
C8A C64A	-5.69
C8G A18G G19A A27C	-3.93
C8A U21C A83G G117A	-1.39
C8A U33G A37U	-6.73
C8A G77A	0.514
C8A C72U A84C	0.272
C8A G45C A105U	-1.9
C8A C86G G113A	-1.25
C8A C89A	-1.24
C8A U112G	0.614
C8A U112A	1.61
C8G A27G G93U C104A A111U U125C	-4.25
C8A C70U	-0.452
C8A C40U	-0.324
